How the values were obtained:
[1] = target: T1, autotaxin (endogenous, human pooled serum) (Homo sapiens, UniProt Q13822 Q13822:36-863); experiment: inhibition; LPA production in serum, 0.025 uM
[2] = target: T2, autotaxin (ENPP2/NPP2) (Homo sapiens, UniProt Q13822 Q13822:36-863); experiment: inhibition; LPA production, 0.20 uM aptamer, ~92% serum, 37C 3 h
[3] = target: T1, autotaxin (endogenous, human pooled …); experiment: inhibition; LPA production in serum, 1.0 uM
[4] = target: T2, autotaxin (ENPP2/NPP2); experiment: inhibition; NPP2 assay per text (column headed LysoPLD)
[5] = target: T2, autotaxin (ENPP2/NPP2); experiment: inhibition; LPA production, 1.0 uM aptamer, ~92% serum, 37C 3 h
[6] = target: T2, autotaxin (ENPP2/NPP2); experiment: inhibition; LPA production, 0.025 uM aptamer, ~92% serum, 37C 3 h
[7] = target: T1, autotaxin (endogenous, human pooled …); experiment: inhibition; LPA production in serum, 0.10 uM
[8] = target: T2, autotaxin (ENPP2/NPP2); experiment: inhibition; NPP2 assay, 37 C

B1: 12(145) (ssDNA)
DNA: CCTGGACGGAACCAGAATACTTTTGGTCTCCAGG
modifications: 2'-OMe C7,G9,A14,G15,A19,C20,A32,G33,G34; P-methyl C1,G5,G8,C12,A16,A19,T21,T23,C28,C30,C31; 5' 40 kDa PEG via ssH linker, 3' idT
Question: Which activity [1] does the source give for B1 here?
Answer: 82 % inhibition

B2: 12(56) (ssDNA)
DNA: B1 DNA
modifications: 2'-OMe C7,G9,A14,G15,A19,C20,A32,G33,G34; 5' 40 kDa PEG (GL2-400GS2) via ssH linker; 3' C6 spacer
Question: B2 was tested. Which activity [2] did it give?
Answer: 93 % inhibition

B3: 12(42) (ssDNA)
DNA: B1 DNA
modifications: 2'-OMe C1,G5,C7,G9,C12,C13,A14,G15,A19,C20,A32,G33,G34; 5' idT, 3' idT
Question: With B3 as the binder, how does the activity [3] read?
Answer: 68 % inhibition

B4: 12(55) (ssDNA)
DNA: B1 DNA
modifications: 2'-OMe C7,G9,A14,G15,A19,C20,A32,G33,G34; 5' C12 spacer; 3' idT
Question: B4 was tested. Which activity [2] did it give?
Answer: 91 % inhibition

B5: 12(141) (ssDNA)
DNA: B1 DNA
modifications: 2'-OMe C7,G9,A14,G15,A19,C20,A32,G33,G34; P-methyl C1,G5,G8,C12,A14,A16,T21,T23,C28,C30,C31; 5' idT, 3' idT
Question: How did the activity [1] turn out when B5 was run?
Answer: 56 % inhibition

B6: 12(151) (ssDNA)
DNA: B1 DNA
modifications: 2'-OMe C7,G9,A14,G15,A19,C20,A32,G33,G34; P-propoxy between C12 and C13; 5' idT, 3' idT
Question: For B6, which IC50 [4] is on record?
Answer: 0.32 nM

B7: 12(44) (ssDNA)
DNA: B1 DNA
modifications: 2'-OMe C1,G5,C7,G9,C13,A14,G15,A19,C20,A32,G33,G34; idT 5' and 3'
Question: How did the activity [5] turn out when B7 was run?
Answer: 87 % inhibition

B8: 12(147) (ssDNA)
DNA: B1 DNA
modifications: 2'-OMe C7,G9,A14,G15,A19,C20,A32,G33,G34; P-methyl C1,G5,G8,C12,A14,A16,A19,T21,T23,C28,C30,C31,G34; 5' 40 kDa PEG via ssH linker, 3' idT
Question: For B8, which activity [1] is on record?
Answer: 70 % inhibition

B9: 12(135) (ssDNA)
DNA: B1 DNA
modifications: 2'-OMe C7,G9,A14,G15,A19,C20,A32,G33,G34; P-methyl C1,G5,G8,C12,A16,T21,T23,C28,C30,C31,G34; 5' idT, 3' idT
Question: For B9, which activity [1] is on record?
Answer: 50 % inhibition

B10: 12(137) (ssDNA)
DNA: B1 DNA
modifications: 2'-OMe C7,G9,A14,G15,A19,C20,A32,G33,G34; P-methyl C1,G5,G8,C12,A16,T21,T23,C28,C30,C31,A32; idT 5' and 3'
Question: Which activity [6] does the source give for B10 here?
Answer: 56 % inhibition

B11: 12(150) (ssDNA)
DNA: B1 DNA
modifications: 2'-OMe C7,G9,A14,G15,A19,C20,A32,G33,G34; P-isopropoxy between C12 and C13; 5' idT, 3' idT
Question: With B11 as the binder, how does the IC50 [4] read?
Answer: 0.17 nM

B12: 12(77) (ssDNA)
DNA: B1 DNA
modifications: 2'-OMe C7,G9,A14,G15,A19,C20,A32,G33,G34; PS between G8 and G9; 5' idT, 3' idT
Question: Which activity [7] does the source give for B12 here?
Answer: 88 % inhibition

B13: 12(52) (ssDNA)
DNA: B1 DNA
modifications: 2'-OMe C7,G9,A14,G15,A19,C20,A32,G33,G34; 5' 80 kDa PEG (GL4-800GS2) via ssH linker; 3' idT
Question: B13 was tested. Which activity [2] did it give?
Answer: 92 % inhibition

B14: 12(105) (ssDNA)
DNA: B1 DNA
modifications: 2'-OMe C7,G9,A14,G15,A19,C20,A32,G33,G34; PS between G9 and A10; 5' idT, 3' idT
Question: B14 was tested. Which activity [7] did it give?
Answer: 25 % inhibition

B15: 12(134) (ssDNA)
DNA: B1 DNA
modifications: 2'-OMe C7,G9,A14,G15,A19,C20,A32,G33,G34; P-methyl C1,G5,G8,C12,A16,T21,T23,C28,C30,C31; 5' 40 kDa PEG (GL2-400GS2) via ssH linker; 3' idT
Question: With B15 as the binder, how does the activity [6] read?
Answer: 69 % inhibition

B16: 12(118) (ssDNA)
DNA: B1 DNA
modifications: 2'-OMe C7,G9,A14,G15,A19,C20,A32,G33,G34; P-methyl G8,C12; 5' idT, 3' idT
Question: For B16, which activity [7] is on record?
Answer: 98 % inhibition

B17: 12(54) (ssDNA)
DNA: B1 DNA
modifications: 2'-OMe C7,G9,A14,G15,A19,C20,A32,G33,G34; 5' idT; 3' C12 spacer
Question: B17 was tested. Which activity [2] did it give?
Answer: 89 % inhibition

B18: 12(57) (ssDNA)
DNA: B1 DNA
modifications: 2'-OMe C7,G9,A14,G15,A19,C20,A32,G33,G34; 5' 40 kDa PEG (GL2-400GS2) via ssH linker; 3' C12 spacer
Question: B18 was tested. Which activity [2] did it give?
Answer: 93 % inhibition

B19: 12(97) (ssDNA)
DNA: B1 DNA
modifications: 2'-OMe C7,G9,A14,G15,A19,C20,A32,G33,G34; P-methyl T27; 5' idT, 3' idT
Question: Which activity [7] does the source give for B19 here?
Answer: 7 % inhibition

B20: 12(152) (ssDNA)
DNA: B1 DNA
modifications: 2'-OMe C7,G9,A14,G15,A19,C20,A32,G33,G34; P-butoxy between C12 and C13; 5' idT, 3' idT
Question: B20 was tested. Which IC50 [4] did it give?
Answer: 0.23 nM

B21: 12(131) (ssDNA)
DNA: B1 DNA
modifications: 2'-OMe C7,G9,A14,G15,A19,C20,A32,G33,G34; P-methyl G8; 5' 40 kDa PEG via ssH linker, 3' idT
Question: With B21 as the binder, how does the activity [7] read?
Answer: 91 % inhibition

B22: 12(46) (ssDNA)
DNA: B1 DNA
modifications: 2'-OMe C1,C7,G9,C13,A14,G15,A19,C20,A32,G33,G34; idT 5' and 3'
Question: With B22 as the binder, how does the activity [5] read?
Answer: 83 % inhibition

B23: 12(45) (ssDNA)
DNA: B1 DNA
modifications: 2'-OMe C1,C7,G9,C12,A14,G15,A19,C20,A32,G33,G34; idT 5' and 3'
Question: For B23, which activity [5] is on record?
Answer: 86 % inhibition

B24: 12(139) (ssDNA)
DNA: B1 DNA
modifications: 2'-OMe C7,G9,A14,G15,A19,C20,A32,G33,G34; P-methyl C1,G5,G8,C12,A16,A19,T21,T23,C28,C30,C31; 5' idT, 3' idT
Question: For B24, which activity [1] is on record?
Answer: 71 % inhibition

B25: 12(142) (ssDNA)
DNA: B1 DNA
modifications: 2'-OMe C7,G9,A14,G15,A19,C20,A32,G33,G34; P-methyl C1,G5,G8,G9,C12,A16,T21,T23,C28,C30,C31; idT 5' and 3'
Question: With B25 as the binder, how does the activity [6] read?
Answer: 44 % inhibition

B26: 12(138) (ssDNA)
DNA: B1 DNA
modifications: 2'-OMe C7,G9,A14,G15,A19,C20,A32,G33,G34; P-methyl C1,G5,G8,C12,A16,C20,T21,T23,C28,C30,C31; idT 5' and 3'
Question: B26 was tested. Which activity [6] did it give?
Answer: 44 % inhibition

B27: SEQ 4 aptamer (ssDNA)
DNA: GTGGTCTAGCTGTACTCTCCGGAACCAGAGCAATTTGGTCGAGCGCTATCGGATGGTCCACAGTCAACGAGCTA
Question: Which IC50 [8] does the source give for B27 here?
Answer: 16 nM
